Experimental findings from US20260139066A1 (VRIJE UNIVERSITEIT BRUSSEL, published 2026) are described below.

T1: canine urokinase plasminogen activator receptor, recombinant protein (canine)
T1 construct: Recombinant c uPAR produced by VIB (Ghent); also called c uPAR; canine uPAR
T1 chain: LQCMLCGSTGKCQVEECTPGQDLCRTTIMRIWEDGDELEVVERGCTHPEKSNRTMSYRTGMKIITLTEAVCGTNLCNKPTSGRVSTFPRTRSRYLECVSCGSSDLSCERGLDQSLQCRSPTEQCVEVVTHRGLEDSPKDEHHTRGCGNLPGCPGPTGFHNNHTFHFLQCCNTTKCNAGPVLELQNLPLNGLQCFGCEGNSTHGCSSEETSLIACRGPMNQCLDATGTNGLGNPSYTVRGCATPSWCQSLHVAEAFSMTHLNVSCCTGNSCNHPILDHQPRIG

B1: sdAb 15 (clone 5A4) with carboxy-terminal hexahistidine tag (VHH)
VHH: QVQLQESGGGWVQPGGSLRLSCAASGFTLDYYGIGWFRQAPGKEREGVSCISSSDGSTYYADSVKGRFTISRDNAKNTVYLQMNSLKPEDTAVYYCATRGASCYYTGSYSLGYDYWGQGTQVTVSS
notes: Lead compound; C-terminal 6His for purified-protein SPR; koff screen used bacterial extracts of the pMECS-GG construct; also called sdAb15.6His; Nr 15
B2: sdAb 16 (clone 5A5) with carboxy-terminal hexahistidine tag (VHH)
VHH: B1 VHH with W11L, A24I, T106S
notes: C-terminal 6His for purified-protein SPR; koff screen used bacterial extracts; also called Nr 16
B3: sdAb 18 (clone 5H2) with carboxy-terminal hexahistidine tag (VHH)
VHH: B1 VHH with W11L, V12A, A23T, L29S
notes: C-terminal 6His for purified-protein SPR; koff screen used bacterial extracts; also called Nr 18
B4: sdAb 17 (clone 5B7) with carboxy-terminal hexahistidine tag (VHH)
VHH: B1 VHH with W11L, A24V, F27S, D30E
notes: C-terminal 6His for purified-protein SPR; koff screen used bacterial extracts; also called Nr 17

Numbering of substitutions follows the chain as printed.

In general, Kd refers to the free concentration of one partner at which half of the binding sites on the other are occupied at equilibrium, for simple one-to-one binding. The koff is the first-order rate constant of dissociation. A word on the kon: it is a measure of how fast the partners come together.

The first assay concerns the target T1, canine urokinase plasminogen activator …. The assay can be described thus: SPR (Biacore T200) kinetics, purified sdAb 150-0.62 nM, c uPAR immobilised on CM5, kd/ka. On the procedure:
(§1) The thermal stability of the sdAbs was determined via a thermal shift assay. Melting temperatures (Tₘ) ranged between 59.5 and 73.6° C. (Table 1). The kinetic parameters (kₐ, Kd, KD) of the purified sdAbs were evaluated via SPR on respectively h and c uPAR recombinant protein (FIG. 10, Table 1). Contrarily to the BE-ELISA results, no h/m or h/m/c cross-reactive sdAbs were identified. […] Finally, their binding to cell-membrane-expressed uPAR was investigated via flow cytometry using 1) h or c uPAR lentivirally transduced HEK293T cells and 2) U87 or HT29 cells with natural h expression. SdAbs showing a significant shift in binding compared to the control conditions (i.e., binding of the non-targeting sdAb R3B23) were further taken into consideration (FIG. 2). Based on the combined results in terms of production yield, stability, binding characteristics, and cross-reactivity, 2 anti-h uPAR (sdAb 3 and 4) and 4 cross-reactive h/c uPAR (sdAb 15, 16, 17 and 18, having respectively SEQ ID NOs: 2, 20, 21, 22) sdAbs were selected for further in vivo evaluation.
(§2) SPR was performed using a Biacore device (Biacore T200; Cytiva). First, the CM5 sensor chip (Biacore, Series S Sensor Chip CM5; Cytiva) was activated with 1-ethyl-3-(3-dimethylaminopropyl) carbodiimide/N-hydroxysuccinimide (EDC/NHS; Amine Coupling Kit; Cytiva). Subsequently, h, m or c uPAR recombinant proteins (5 μg/mL) were immobilized on separate chips at pH 5. The SPR measurements were done at 25° C. in HEPES buffered saline (HBS; Cytiva) as a running buffer, with a flow rate of 30 μL/min. For off-rate screening, the contact time was set at 120 s, dissociation time at 600 s, and the runs were replicated 5 times. […] The association step was allowed for 180 s, the dissociation step for 600 s. For both studies, regeneration of 20 s at 30 μL/min using 0.1 M glycine at pH 2.5 followed by a stabilization period of 60 s, was performed.
As for B1, the Kd was 12 nM.
Still for that read-out and setting: with B2 the figure was 36 nM; with B3, 34 nM; with B4, 17 nM.

For the next assay, the target named is T2, human urokinase plasminogen activator receptor, recombinant extracellular domain protein (human, UniProt Q03405 23-303).
T2 construct: Bought recombinant protein (Sino Biological); also called h uPAR; human uPAR
T2 sequence (Q03405 23-303 limits assumed): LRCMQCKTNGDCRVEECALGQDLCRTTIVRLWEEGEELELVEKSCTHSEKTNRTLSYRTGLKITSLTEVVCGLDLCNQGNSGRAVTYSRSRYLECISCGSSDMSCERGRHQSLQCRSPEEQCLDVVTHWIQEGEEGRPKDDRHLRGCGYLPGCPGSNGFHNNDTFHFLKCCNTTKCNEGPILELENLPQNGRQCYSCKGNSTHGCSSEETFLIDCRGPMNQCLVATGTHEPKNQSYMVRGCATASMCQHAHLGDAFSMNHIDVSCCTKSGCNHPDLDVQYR
Put plainly: SPR (Biacore T200) kinetics, purified sdAb 150-0.62 nM, h uPAR immobilised on CM5, kd/ka. The protocol: as §1, §2
On the technique in general: Surface plasmon resonance follows binding to a sensor surface in real time, without labels.
Take B1: the Kd stood at 2.1 nM.
Still for that read-out and setting: with B2 the figure was 3 nM; with B3, 4.7 nM; with B4, 2.3 nM.

For the next assay, the target named is T2, human urokinase plasminogen activator …. The assay can be described thus: SPR (Biacore T200) off-rate screening of bacterial extract, h uPAR immobilised on CM5; column koff. On the procedure: as §2
Turning to B1, the koff came out at 0.0042 s⁻¹.
Same read-out and setting: with B2 the figure was 0.0027 s⁻¹; with B3, 0.0031 s⁻¹; with B4, 0.0026 s⁻¹.

The next assay has the same target. The assay can be described thus: SPR (Biacore T200) kinetics, purified sdAb 150-0.62 nM, h uPAR immobilised on CM5, 1:1 fit. On the procedure:
as §1, §2
On to B1, for which the kon came to 1.6e+06 M⁻¹ s⁻¹.
The same measure, in the same setting: with B2 the figure was 500000 M⁻¹ s⁻¹; with B3, 840000 M⁻¹ s⁻¹; with B4, 860000 M⁻¹ s⁻¹.

For another assay, the target named is T1, canine urokinase plasminogen activator …. The assay can be described thus: SPR (Biacore T200) kinetics, purified sdAb 150-0.62 nM, c uPAR immobilised on CM5, 1:1 fit; column kd. On the procedure: as §1, §2
In the case of B1, the koff stood at 0.002 s⁻¹.
Still for that read-out and setting: with B2 the figure was 0.0031 s⁻¹.
The same measure, in the same setting: with B3 the figure was 0.0035 s⁻¹; with B4, 0.0019 s⁻¹.

For the next assay the target is unchanged. Put plainly: SPR (Biacore T200) kinetics, purified sdAb 150-0.62 nM, c uPAR immobilised on CM5, 1:1 fit. On the procedure: as §1, §2
For the molecule B1, the kon stood at 170000 M⁻¹ s⁻¹.
Still for that read-out and setting: with B2 the figure was 86000 M⁻¹ s⁻¹; with B3, 100000 M⁻¹ s⁻¹.
On the same count and under the same terms, with B4 the figure was 120000 M⁻¹ s⁻¹.

The target in another assay is T2, human urokinase plasminogen activator …. The assay can be described thus: SPR (Biacore T200) kinetics, purified sdAb 150-0.62 nM, h uPAR immobilised on CM5, 1:1 fit; column kd. On the procedure: as §1, §2
On to B1, for which the koff is 0.0034 s⁻¹.
Same read-out and setting: with B2 the figure was 0.0015 s⁻¹; with B3, 0.004 s⁻¹.
Same read-out and setting: with B4 the figure was 0.0019 s⁻¹.

A further assay addresses T1, canine urokinase plasminogen activator …. Put plainly: SPR (Biacore T200) off-rate screening of bacterial extract, c uPAR immobilised on CM5; column koff. On the procedure:
as §2
In the case of B1, the koff was 0.0065 s⁻¹.
Still for that read-out and setting: with B2 the figure was 0.01 s⁻¹.
Same read-out and setting: with B3 the figure was 0.0092 s⁻¹; with B4, 0.0073 s⁻¹.
